Assay results published in PMC10602137 (2023).

T1: GAD65 peptide on HLA-DRA*01:01 / HLA-DRB1*04:01 (human)
T1 peptide: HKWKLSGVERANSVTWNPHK

T2: influenza M protein (Influenza A MP54; also given MP74) peptide on HLA-DRA*01:01 / HLA-DRB1*04:01 (human)
T2 peptide: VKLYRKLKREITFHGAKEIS

B1: Clone_566 (TCR)
alpha TRAV29DV5 TRAJ45 CDR3: CAASRYSGGGADGLTF
beta TRBV12-4 TRBJ1-1 CDR3: CASSVQGGNTEAFF
B2: Clone_81 (TCR)
alpha TRAV29DV5 TRAJ45 CDR3: CAASRYSGGGADGLTF
beta TRBV12-4 TRBJ1-1 CDR3: CASSPQGGNTEAFF
B3: P196-1 (TCR)
alpha TRAV29DV5 TRAJ45 CDR3: CAASRYSGGGADGLTF
beta TRBV12-4 TRBJ1-1 CDR3: CASSLQGGNTEAFF

Biological target: T1, GAD65 peptide on HLA-DRA*01:01 / …
Assay: proliferation

Row | Binder | binding result
1 | B1 | recognises
2 | B2 | recognises
3 | B3 | recognises

Biological target: T2, influenza M protein (Influenza A MP54; …)
Assay: proliferation

Row | Binder | binding result
4 | B1 | recognises
5 | B2 | recognises
6 | B3 | recognises
